Assay results published in paper PMC7246762, “Peptide Interference with APP and Tau Association: Relevance to Alzheimer’s Disease Amelioration” (International Journal of Molecular Sciences, 2020).
No end group written: not given here.

Target: T1, Tau1 (19-34) peptide labelled with rhodamine (human, also: labelled with rhodamine isothiocyanate, site not given here)
T1 construct: microtubule-associated protein Tau, human, residues 19-34; also called Tau1R; source: synthetic peptide (GL Biochem Ltd.), labelled with rhodamine isothiocyanate
T1 peptide: GLGDRKDQGGYTMHQD
Assay: far-Western, overlay or dot blot; mixtures of a fluorescein-labelled (green) and a rhodamine-labelled (red) peptide spotted on a nitrocellulose membrane; yellow colour read as binding
Conditions: both partners purified

B1: APP1 (390-412) peptide labelled with fluorescein (peptide)
peptide: HFQKAKERLEAKHRERMSQVMRE
modifications: also: labelled with fluorescein isothiocyanate, site not given here
notes: amyloid precursor protein, human, residues 390-412; The discussion names the region as 389-411; also called APP1F; App1F; source: synthetic peptide (GL Biochem Ltd.), labelled with fluorescein isothiocyanate
- binding result: binds
